Source: PMC3839617

Target: neuropilin 1 (human) (UniProt O14786)
Test: radioligand binding

Sequence of UniProt O14786 (O14786 22-923): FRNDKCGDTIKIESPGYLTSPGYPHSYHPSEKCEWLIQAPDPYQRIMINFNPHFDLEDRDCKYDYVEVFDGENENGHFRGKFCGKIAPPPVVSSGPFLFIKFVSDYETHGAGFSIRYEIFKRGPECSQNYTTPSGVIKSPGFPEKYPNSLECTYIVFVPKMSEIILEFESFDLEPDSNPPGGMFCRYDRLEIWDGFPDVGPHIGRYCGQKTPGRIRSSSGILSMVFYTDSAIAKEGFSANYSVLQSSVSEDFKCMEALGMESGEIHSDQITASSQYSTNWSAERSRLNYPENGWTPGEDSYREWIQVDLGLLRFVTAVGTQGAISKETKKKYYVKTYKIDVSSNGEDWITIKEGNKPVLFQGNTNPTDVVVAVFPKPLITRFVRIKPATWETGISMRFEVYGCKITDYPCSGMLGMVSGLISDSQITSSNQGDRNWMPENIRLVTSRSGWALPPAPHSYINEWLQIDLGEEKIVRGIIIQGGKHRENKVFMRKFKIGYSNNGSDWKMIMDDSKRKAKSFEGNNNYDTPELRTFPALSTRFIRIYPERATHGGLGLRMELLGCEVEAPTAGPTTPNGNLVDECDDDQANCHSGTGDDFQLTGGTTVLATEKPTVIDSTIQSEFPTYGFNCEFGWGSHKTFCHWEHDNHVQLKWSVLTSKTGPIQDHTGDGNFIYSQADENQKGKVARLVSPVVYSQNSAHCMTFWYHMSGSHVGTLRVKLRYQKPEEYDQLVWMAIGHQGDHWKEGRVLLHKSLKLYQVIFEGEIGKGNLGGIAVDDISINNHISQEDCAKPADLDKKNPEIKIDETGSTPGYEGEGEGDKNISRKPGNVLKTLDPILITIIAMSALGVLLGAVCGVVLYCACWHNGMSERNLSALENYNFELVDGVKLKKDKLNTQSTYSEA

I125VEGF bound: 413 fmol/µg
I125VEGF bound in the presence of SN: 504 fmol/µg
Substance: VEGF labelled by radioactive iodine (from UniProt P15692 1-395) (ligand)
